# Positions count from the first letter of the chain named. Numbers in names are those of the source.
# T1: mouse TGF-βRII on MC3T3-E1 cells (mouse osteoblasts) (mouse, UniProt Q62312 24-567)
# T1 sequence (looked up): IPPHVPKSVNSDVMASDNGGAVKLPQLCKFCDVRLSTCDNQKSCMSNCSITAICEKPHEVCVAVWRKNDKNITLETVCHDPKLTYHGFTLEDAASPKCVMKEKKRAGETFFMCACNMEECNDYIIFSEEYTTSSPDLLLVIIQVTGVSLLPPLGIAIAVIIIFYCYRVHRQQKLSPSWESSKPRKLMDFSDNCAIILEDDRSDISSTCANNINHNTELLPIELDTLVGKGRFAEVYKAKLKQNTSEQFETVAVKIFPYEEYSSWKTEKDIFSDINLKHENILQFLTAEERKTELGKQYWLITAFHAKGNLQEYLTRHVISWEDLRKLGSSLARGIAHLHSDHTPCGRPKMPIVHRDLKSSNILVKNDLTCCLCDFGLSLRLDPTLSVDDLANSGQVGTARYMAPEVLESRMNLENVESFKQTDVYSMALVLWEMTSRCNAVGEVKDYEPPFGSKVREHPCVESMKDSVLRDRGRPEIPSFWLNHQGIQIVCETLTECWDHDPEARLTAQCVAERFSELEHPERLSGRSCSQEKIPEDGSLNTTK
# B1: DOM23h-271 mutant 1H11 (L at 61, W at 64) (VHH, name in Kabat numbering)
# VHH: EVQLLESGGGLVQPGGSLRLSCAASGFTFTEYRMWWVRQAPGKGLEWVSAIEPIGNRTYYALSVWGRFTISRDNSKNTLYLQMNSLRAEDTAVYYCAKQIPGRKWTANSRFDYWGQGTLVTVSS
# notes: human VH dAb; expressed from pDOM13; also called LW
# B2: DOM23h-271 mutant 1B11 (R at 61, V at 64) (VHH, name in Kabat numbering)
# VHH: B1 VHH with L62R, W65V
# notes: human VH dAb; expressed from pDOM13; also called RV
# B3: DOM23h-271 mutant 2C12 (D61N, K64R) (VHH, name in Kabat numbering)
# VHH: B1 VHH with L62N, W65R
# notes: human VH dAb; expressed from pDOM13; also called NR
# B4: DOM23h-271 mutant 1D9 (R at 61, D at 64) (VHH, name in Kabat numbering)
# VHH: B1 VHH with L62R, W65D
# notes: human VH dAb; expressed from pDOM13; also called RD
# B5: DOM23h-271 mutant 3D9 (K at 61, G at 64) (VHH, name in Kabat numbering)
# VHH: B1 VHH with L62K, W65G
# notes: human VH dAb; expressed from pDOM13; also called KG
# B6: DOM23h-271-129 (VHH)
# VHH: EVQLLESGGGLVQPGGSLRLSCAASGSTFTEYRMWWVRQAPGKGLEWVSAIEPIGHRTYYADSVKGRFTISRDNSKNTLYLQMNSLRAEDTAVYYCAKQAPNQRYVARGRLDYWGQGTLVTVSS
# notes: expressed from pC10
# B7: DOM23m-81 (VHH, not shown: small tags and cut ends)
# VHH: EVQLLESGGGLVQPGGSLRLSCAASGFTFEPVIMGWVRQAPGKGLEWVSAIEARGGGTYYADSVKGRFTISRDNSKNTLYLQMNSLRAEDTAVYYCAKPGRHLSQDFDYWGQGTLVTVSS
# B8: DOM23h-439-40 (DOM23h-439-25 + C-terminal Alanine) (VHH)
# VHH: EVQLLESGGGLVQPGGSLRLSCAASGFTFGTEQMWWVRQAPGKGLEFVSRIDSPGGRTYYADSVKGRFTISRDNSKNTLYLQMNSLRAEDTAVYYCAKRRPTGVSGTFYDYWGQGTLVTVSS
# notes: human VH dAb
# B9: DOM23h-439-44 (DOM23h-439-25 + C-terminal Alanine + 61N64R) (VHH)
# VHH: B8 VHH with D62N, K65R
# notes: human VH dAb
# B10: DOM23h-439-42 (DOM23h-439-25 + C-terminal Alanine + 61N) (VHH)
# VHH: B8 VHH with D62N
# notes: human VH dAb
# B11: DOM23h-439-41 (DOM23h-439-25 + C-terminal Alanine + 48I) (VHH)
# VHH: B8 VHH with V48I
# notes: human VH dAb
# B12: DOM23h-439-43 (DOM23h-439-25 + C-terminal Alanine + 64R) (VHH)
# VHH: B8 VHH with K65R
# notes: human VH dAb
# B13: DOM23m-29 (VHH, not shown: small tags and cut ends)
# VHH: EVQLLESGGGLVQPGGSLRLSCAASGFTFKRYSMGWVRQAPGKGLEWVSVINDLGSLTYYADSVKGRFTISRDNSKNTLYLQMNSLRAEDTAVYYCAKGNISMVRPGSWFDYWGQGTLVTVSS
# Columns and labels:
# [1] = molecular target: T2, recombinant human TGF-β RII/Fc chimera protein (human, UniProt P37173 24-159); assay: SPR Biacore A100, antigen-Fc captured by anti-human IgG, purified dAb, 1:1 model
# T2 construct: range 24-159; Made in HEK-F cells; Biotinylated where it was put on SA chips, otherwise captured by anti-human IgG; also called human TGFbRII/Fc; hRII-Fc; not shown: Fc region of human IgG1
# Experimental: BIACORE™ A100 analysis was carried out using a capture surface on a CM5 chip. Anti-human IgG was used as the capturing agent and coupled to a CM5 biosensor chip by primary amine coupling. The Antigen molecule fused to the human Fc was captured on this immobilised surface to a level from 200 to 300 resonance units and supernatants or purified domain antibodies were passed over this captured surface. An injection of media or buffer over the captured antigen surface was used for double referencing. On each flow cell, a protein A spot allowed to confirm the presence of domain antibody on each sample injected. […] All runs were carried out at 25° C. using HBS-EP buffer as running buffer. Data were generated using the BIACORE™ A100 and analyzed using its inherent software. Kinetics from purified samples were fitted to the 1:1 binding model while supernatant off-rates were analyzed using the 1:1 dissociation model and/or using the binding level and the stability level of each sample in comparison to the parent molecule.
# A selection of mutants with improved off-rate were purified and subjected to full BIACORE™ A100 kinetic analysis to determine their affinity (Table 10). The thermal stability of the mutants was also determined by generation of melting profiles in the presence of SYPRO™ Orange (Invitrogen). Briefly, the purified dAbs were diluted to 50 and 100 ug/ml in a 1:500 dilution of SYPRO™ Orange in PBS, and subjected to a 30-90° C. melt curve in a Mini OPTICON™ PCR machine (BioRad). The Tm of the major positive transition was determined at each concentration and used to calculate an estimated Tm value at 1 mg/ml as an indication of the melting temperature for comparison (Table 10).
# [2] = molecular target: human TGF-βRII on cells (SBE-bla HEK 293T cells; A549 cells) (human, UniProt P37173 23-567); assay: cell-based or functional assay
# [3] = molecular target: T2, recombinant human TGF-β RII/Fc chimera …; assay: SPR Biacore T200, receptor-Fc captured by anti-human IgG, dAb as analyte, 1:1 model
# Experimental: (§1) Anti-human IgG was immobilised on a Biacore CM4 chip by primary amine coupling according to the manufacturer's instructions. Human TGF-β RII/Fc, cynomolgus TGF-β RII/Fc or human Fc fragment were captured on this surface. Domain antibodies were passed over the two captured receptors at 3 concentrations of 100, 10 and 1 nM (DOM23h-439 dAbs) or 100, 25 and 6.25 nM (DOM23h-271 dAbs). Only the 100 nM concentration of each dab was passed over human Fc fragment to confirm specificity of binding to the extracellular TGF-β RII domain. An injection of buffer over the captured antigen surface was used for double referencing. […] All runs were carried out at 25° C. using HBS-EP buffer as running buffer. Data were generated using the BIACORE™ T200 and fitted to the 1:1 binding model inherent to the software. […] The DOM23h-271 dAbs and the DOM23h-439 lineages were run in separate experiments.
# cynomolgus TGF-β RII/Fc = molecular target: T3, cynomolgus TGF-β RII/Fc (cynomolgus); assay: as above
# T3 construct: extracellular domain; also called Cyno TGFBRII; Cyno TGFbRII
# Experimental: as §1
# [4] = molecular target: T1, mouse TGF-βRII on MC3T3-E1 cells (mouse …); assay: cell-based or functional assay
# T2 sequence (P37173 24-159 limits assumed, stated change not applied): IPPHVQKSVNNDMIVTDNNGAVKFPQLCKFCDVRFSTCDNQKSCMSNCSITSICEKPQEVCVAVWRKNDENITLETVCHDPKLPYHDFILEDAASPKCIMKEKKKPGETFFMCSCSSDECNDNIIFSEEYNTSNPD
# Chain of human TGF-βRII on cells (SBE-bla HEK 293T cells; A549 cells) (P37173 23-567): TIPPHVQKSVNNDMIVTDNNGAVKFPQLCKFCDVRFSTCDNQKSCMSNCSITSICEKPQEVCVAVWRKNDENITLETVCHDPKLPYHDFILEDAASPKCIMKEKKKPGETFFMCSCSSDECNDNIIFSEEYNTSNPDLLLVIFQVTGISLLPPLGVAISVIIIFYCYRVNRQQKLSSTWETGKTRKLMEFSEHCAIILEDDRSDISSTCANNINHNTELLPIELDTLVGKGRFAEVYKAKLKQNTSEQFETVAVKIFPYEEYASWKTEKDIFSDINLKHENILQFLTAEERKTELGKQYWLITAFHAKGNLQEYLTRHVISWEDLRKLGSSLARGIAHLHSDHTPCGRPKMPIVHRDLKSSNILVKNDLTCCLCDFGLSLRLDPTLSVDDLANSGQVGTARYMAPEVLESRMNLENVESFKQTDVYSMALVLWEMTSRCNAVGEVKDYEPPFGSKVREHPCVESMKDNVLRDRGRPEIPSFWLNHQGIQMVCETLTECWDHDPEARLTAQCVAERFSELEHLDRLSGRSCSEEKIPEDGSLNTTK
binder,measurement,setting,value
B1,Kd,[1],4.17 nM
B2,Kd,[1],1.88 nM
B3,Kd,[1],3.34 nM
B4,Kd,[1],1.17 nM
B5,Kd,[1],4.34 nM
B6,"IC50 nM, Mean (SBE-bla HEK 293T cell sensor assay)",[2],22.7 nM
same,Kd,[3],0.0741 nM
same,koff,[3],0.000411 s⁻¹
same,kon,[3],5.55e+06 M⁻¹ s⁻¹
same,Kd,cynomolgus TGF-β RII/Fc,0.0712 nM
same,koff,cynomolgus TGF-β RII/Fc,0.000427 s⁻¹
same,kon,cynomolgus TGF-β RII/Fc,6e+06 M⁻¹ s⁻¹
B7,"max % inhibition, Average (Mouse 3T3 cell assay, method m2)",[4],30.3%
B8,"IC50 nM, Mean (SBE-bla HEK 293T cell sensor assay)",[2],14 nM
same,Kd,[3],0.104 nM
same,koff,[3],0.00139 s⁻¹
same,kon,[3],1.34e+07 M⁻¹ s⁻¹
same,Kd,cynomolgus TGF-β RII/Fc,0.366 nM
same,koff,cynomolgus TGF-β RII/Fc,0.00342 s⁻¹
same,kon,cynomolgus TGF-β RII/Fc,9.34e+06 M⁻¹ s⁻¹
B9,"IC50 nM, Mean (SBE-bla HEK 293T cell sensor assay)",[2],1.3 nM
same,Kd,[3],0.00289 nM
same,koff,[3],6.91e-05 s⁻¹
same,kon,[3],2.39e+07 M⁻¹ s⁻¹
same,Kd,cynomolgus TGF-β RII/Fc,0.00677 nM
same,koff,cynomolgus TGF-β RII/Fc,0.000147 s⁻¹
same,kon,cynomolgus TGF-β RII/Fc,2.17e+07 M⁻¹ s⁻¹
B10,"IC50 nM, Mean (SBE-bla HEK 293T cell sensor assay)",[2],0.7 nM
same,Kd,[3],0.0032 nM
same,koff,[3],0.000131 s⁻¹
same,kon,[3],4.09e+07 M⁻¹ s⁻¹
same,Kd,cynomolgus TGF-β RII/Fc,0.011 nM
same,koff,cynomolgus TGF-β RII/Fc,0.00041 s⁻¹
same,kon,cynomolgus TGF-β RII/Fc,3.72e+07 M⁻¹ s⁻¹
B11,"IC50 nM, Mean (SBE-bla HEK 293T cell sensor assay)",[2],1.7 nM
same,Kd,[3],0.0104 nM
same,koff,[3],0.000187 s⁻¹
same,kon,[3],1.81e+07 M⁻¹ s⁻¹
same,Kd,cynomolgus TGF-β RII/Fc,0.0333 nM
same,koff,cynomolgus TGF-β RII/Fc,0.000522 s⁻¹
same,kon,cynomolgus TGF-β RII/Fc,1.57e+07 M⁻¹ s⁻¹
B12,"IC50 nM, Mean (SBE-bla HEK 293T cell sensor assay)",[2],1 nM
same,Kd,[3],0.0423 nM
same,koff,[3],0.000373 s⁻¹
same,kon,[3],8.83e+06 M⁻¹ s⁻¹
same,Kd,cynomolgus TGF-β RII/Fc,0.149 nM
same,koff,cynomolgus TGF-β RII/Fc,0.0012 s⁻¹
same,kon,cynomolgus TGF-β RII/Fc,8.04e+06 M⁻¹ s⁻¹
B13,"max % inhibition, Average (Mouse 3T3 cell assay, method m1)",[4],54.2%
